From publication PMC6230950

Tests used:
[1] = target: human TB‐PIGS:ΔXF (Ag85B fused to a truncated human γ1 chain and the IgM μ tailpiece), produced in g (M. tuberculosis | human | not stated) (UniProt P9WQP1); experiment: SPR; Biacore X100, HBS-EP+; TB-PIGS captured on protein A coupled to a CM5 chip; FcγR as analyte, 40 μL/min; affinity of one FcγR for a single arm
[2] = target: Human TB-PIGS produced in wild-type Nicotiana benthamiana (Ag85B - truncated human γ1 chain - IgM tailpiece) (Mycobacterium tuberculosis | human | not stated) (UniProt P9WQP1); experiment: SPR; Biacore X100; protein A on a CM5 chip, IgG or TB-PIGS captured; five-six concentrations of human CD16a as analyte; HBS-EP+; 40 uL/min, contact 90 s, dissociation 300 s; two-state binding interaction model
[3] = target: Human TB-PIGS produced in glyco-engineered ΔXF Nicotiana benthamiana (Mycobacterium tuberculosis | human | not stated) (UniProt P9WQP1); experiment: SPR; Biacore X100; protein A on a CM5 chip, IgG or TB-PIGS captured; human CD32a as analyte, 4000 nM to 125 nM in 2-fold dilutions; HBS-EP+; 40 uL/min, contact 90 s; steady-state affinity analysis
[4] = target: Human TB-PIGS produced in wild-type Nicotiana benthamiana (Ag85B - truncated human γ1 chain - IgM tailpiece) (Mycobacterium tuberculosis | human | not stated) (UniProt P9WQP1); experiment: as above
[5] = target: human TB‐PIGS (Ag85B fused to a truncated human γ1 chain and the IgM μ tailpiece), produced in wild‐type N. benthamiana (M. tuberculosis | human | not stated) (UniProt P9WQP1); experiment: native gel or EMSA
[6] = target: murine TB‐PIGS (Ag85B fused to a truncated mouse γ2a chain and the IgM μ tailpiece), produced in wil (M. tuberculosis | mouse | not stated) (UniProt P9WQP1); experiment: native gel or EMSA
[7] = target: Murine TB-PIGS produced in glyco-engineered ΔXF Nicotiana benthamiana (Mycobacterium tuberculosis | mouse | not stated) (UniProt P9WQP1); experiment: SPR; Biacore X100; protein A amine-coupled on a CM5 chip, IgG or TB-PIGS captured on it; CD64 (human or mouse) as analyte, 240 nM down to 1.875 nM in 1:2 dilutions; HBS-EP+; 40 uL/min, contact 135 s, dissociation 600 s; 1:1 model, but for human TB-PIGS from wild-type plants the 'Heterogeneous antibody with aglycosylation' model (two sets of values)
[8] = target: Murine TB-PIGS produced in wild-type Nicotiana benthamiana (Ag85B - truncated mouse γ2a chain - IgM tailpiece) (Mycobacterium tuberculosis | mouse | not stated) (UniProt P9WQP1); experiment: as above

human CD16a (FcγRIIIa) (from UniProt P08637 17-208) (receptor)
Kd [1]: 0.0197 µM
Kd [2]: 0.279 µM

human CD32a (FcγRIIa) (from UniProt P12318 34-217) (receptor)
Kd [3]: 2.16 µM
Kd [4]: 4.21 µM

human CD64 (FcγRI) (from UniProt P12314 16-292) (receptor)
Kd [1]: 0.00041 µM

human TB‐PIGS (Ag85B fused to a truncated human γ1 chain and the IgM μ tailpiece), produced in wild‐type N. benthamiana (from UniProt P9WQP1 41-325) (Fc fusion)
percent of the sample as polymers [5]: 35 to 60%

murine TB‐PIGS (Ag85B fused to a truncated mouse γ2a chain and the IgM μ tailpiece), produced in wil (from UniProt P9WQP1 41-325) (Fc fusion)
percent of the sample as polymers [6]: 5 to 20%

B1: mouse CD64 (FcγRI) (receptor)
chain: EVVNATKAVITLQPPWVSIFQKENVTLWCEGPHLPGDSSTQWFINGTAVQISTPSYSIPEASFQDSGEYRCQIGSSMPSDPVQLQIHNDWLLLQASRRVLTEGEPLALRCHGWKNKLVYNVVFYRNGKSFQFSSDSEVAILKTNLSHSGIYHCSGTGRHRYTSAGVSITVKELFTTPVLRASVSSPFPEGSLVTLNCETNLLLQRPGLQLHFSFYVGSKILEYRNTSSEYHIARAEREDAGFYWCEVATEDSSVLKRSPELELQVLGPQSSAP
Kd [7]: 0.0168 µM
koff [7]: 0.0231 s⁻¹
kon [7]: 1.38e+06 M⁻¹ s⁻¹
Kd [8]: 0.05 µM
koff [8]: 0.0248 s⁻¹
kon [8]: 500000 M⁻¹ s⁻¹
